The source of these data is patent EP4768503A1 (Keymed Biosciences (Chengdu) Co., Ltd., dated 2026).

In experiment [1] the target is T1, Aβ1-42 protofibril (human).
T1 construct: also called amyloid protofibril
The experiment can be described thus: SPR (Biacore T200), protofibril on CM5 chip, antibody as analyte.

The target of experiment [2] is T2, pyroE Aβ3-42 peptide (human, pyroglutamate derived from glutamic acid at the third amino acid position of Aβ (N-terminus of the peptide)).
T2 construct: Synthetic peptide; It lacks the first two N-terminal residues of Aβ; also called pyroglutamate-modified β-amyloid
T2 sequence (peptide, as listed by the source): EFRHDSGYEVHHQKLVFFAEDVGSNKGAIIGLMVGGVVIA
The experiment in a line: graded binding, chimeric antibody (assay not named; ELISA in Example 1). (In general: ELISA stands for enzyme-linked immunosorbent assay.)

Experiment [3] addresses T3, pyroE Aβ3-16-biotin polypeptide (human, also: biotin, position not given here).
T3 peptide: [pGlu]FRHDSGYEVHHQK
The experiment in a line: SPR (Biacore T200), biotinylated peptide on SA chip, antibody as analyte; antigen channel not given. In general terms: Surface plasmon resonance follows binding to a sensor surface in real time, without labels.

Changes are numbered by the printed parent chain. Where no end group is shown, it is not given here. [ ]: non-standard residue; d: D form. pGlu = O=C1CC[C@@H](C(=O)O)N1

T1 sequence (peptide, as listed by the source): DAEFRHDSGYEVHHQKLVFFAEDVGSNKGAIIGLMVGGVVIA

B1: 7C8 H2K2 hIgG1 (antibody, V domains shown)
VH: QVTLKESGPALVKPTQTLTLTCTFSGFSLSTSGMGVSWIRQPPGKALEWLAHIYWDDDKRYNPSLKSRLTITKDTSKNQVVLTMTNMDPVDTATYYCARYGKGFAYWGQGTLVTVSS
VL: DIVMTQSPLSLPVTPGEPASISCRSSQSIVHSNGNTYLDWYLQKPGQSPQLLIYKVSNRFSGVPDRFSGSGSGTDFTLKISRVEAEDVGVYYCFQGSHVPLTFGQGTKLEIK
notes: also called h7C8 H2 + h7C8 K2
Turning to B1, in experiment [1], the Kd – broadly, the free concentration of one partner at which half of the binding sites on the other are occupied at equilibrium, for simple one-to-one binding – is 2.76 nM; the koff (in general, the first-order rate constant of dissociation) was determined as 0.00293 s⁻¹; the kon (commonly a measure of how fast the partners come together) amounted to 1.06e+06 M⁻¹ s⁻¹.

B2: 7C8 H6K2 hIgG1 (antibody, V domains shown)
VH: QVQLQESGPGLVKPSETLSLTCTFSGFSISTSGMGVSWIRQPPGKGLEWIGHIYWDDDKRYNPSLKSRVTISKDTSKNQVSLKLSSVTAADTAVYYCARYGKGFAYWGQGTLVTVSS
VL: B1 VL
notes: also called h7C8 H6K2 hIgG1; h7C8 H6K2
For the molecule B2, in experiment [1], binding was put at a Kd of 2.8 nM, the koff amounted to 0.0041 s⁻¹ and the kon stood at 1.46e+06 M⁻¹ s⁻¹.

B3: 7C8 H7K2 hIgG1 (antibody, V domains shown)
VH: B2 VH with F24V
VL: B1 VL
notes: also called h7C8 H7 + h7C8 K2
Consider B3, for which, in experiment [1], the affinity, expressed as Kd, was 2.33 nM; the koff was 0.00415 s⁻¹; the kon is 1.78e+06 M⁻¹ s⁻¹.

B4: 7C8 H5K2 hIgG1 (antibody, V domains shown)
VH: B2 VH with I29L, G51A
VL: B1 VL
notes: also called h7C8 H5 + h7C8 K2
In experiment [1], B4 had a Kd of 2.95 nM, a koff of 0.00395 s⁻¹ and a kon of 1.34e+06 M⁻¹ s⁻¹.

B5: 7C8 H7K1 hIgG1 (antibody, V domains shown)
VH: B2 VH with F24V
VL: B1 VL with I2V, D39E, Q50K
notes: also called h7C8 H7 + h7C8 K1
In experiment [1], B5 displayed a Kd of 1.93 nM, a koff of 0.00466 s⁻¹ and a kon of 2.42e+06 M⁻¹ s⁻¹.

B6: 7C8 H6K1 hIgG1 (antibody, V domains shown)
VH: B2 VH
VL: B1 VL with I2V, D39E, Q50K
notes: also called h7C8 H6 + h7C8 K1
In experiment [1], B6 yielded a Kd of 2.63 nM, a koff of 0.00472 s⁻¹ and a kon of 1.79e+06 M⁻¹ s⁻¹.

B7: 7C8 H4K2 hIgG1 (antibody, V domains shown)
VH: B2 VH with I29L, I50L, G51A, K77R
VL: B1 VL
notes: also called h7C8 H4 + h7C8 K2
Regarding B7, in experiment [1], binding was characterised by a dissociation constant (Kd) of 3.08 nM, the koff was determined as 0.0037 s⁻¹ and the kon was 1.2e+06 M⁻¹ s⁻¹.

B8: 7C8 H2K1 hIgG1 (antibody, V domains shown)
VH: B1 VH
VL: B1 VL with I2V, D39E, Q50K
notes: also called h7C8 H2 + h7C8 K1
In experiment [1], B8 yielded a Kd of 2.74 nM, a koff of 0.0028 s⁻¹ and a kon of 1.02e+06 M⁻¹ s⁻¹.

B9: 171P1 (antibody, V domains shown)
VH: QVQLEQPGAVSVRPGASVKLSCKASGYTFTSYWINWVKQRPGQGLEWIGNIYPSDSYTHYNQKFKDKATLTVDKSSTTAYMQISSPTSEDSAVYYCTREGTVVYWGQGTLLTVSA
VL: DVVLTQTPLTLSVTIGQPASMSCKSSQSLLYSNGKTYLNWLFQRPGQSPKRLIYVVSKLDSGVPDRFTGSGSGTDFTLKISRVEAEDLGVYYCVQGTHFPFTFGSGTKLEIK
notes: Chimeric antibody; the constant region of the chimeric form is not specified
As for B9, in experiment [2], the binding result is “binds”.

B10: 193D22 (antibody, V domains shown)
VH: EVKLVESGGGLVKPGGSLKLSCAASGFAFSSYDMSWVRQTPEKRLEWVATISNGGSYTYYPDSVKGRFSISRDNARNTLYLQMSSLRSEDTALYYCARHPLYYGNYGWWYFDVWGAGTTVTVSS
VL: DVVMTQTPLSLPVSLGDQASISCRSSQSLVYSNGNTYLYWYLQKPGQSPKLLIYKVSNRFSGVPDRFSGSGSGTDFTLKISRVEAEDLGVYFCSQSTHVPLTFGAGTKLELK
notes: as for B9
As for B10, the binding result in experiment [2] is reported as “binds”.

B11: 193M7 (antibody, V domains shown)
VH: B10 VH with N53S, G54R, S56T, S69T, D73N, W108Y
VL: B10 VL with Y31H, N33D, T36I
notes: as for B9
As for B11, in experiment [2], the binding result was “binds”.

B12: 178D4 (antibody, V domains shown)
VH: QVQLQQSGAELVKPGASVKLSCKASGYTFTSYDLNWVRQRPEQGLEWIGWTFPGDGRTKYNEKFKGKATLTTDKSSSTAYMHLSRLTSEDSAVYFCVRWDYYGRSTGYFDVWGAGTTVTVSS
VL: QIVLTQSPAIMSASLGERVTMTCTASSSVSSSYLHWYQQRPGSSPKLWIYGTSNLASGVPARFSGSGSGTSYSLTISSMEAEDAATYYCHQYHRSPLTFGAGTKLELK
notes: as for B9
Turning to B12, the binding result in experiment [2] is “binds”.

B13: 200O1 H1K1 (antibody, V domains shown)
VH: QVTLKESGPVLVKPTETLTLTCTVSGFSLSRYIVHWYRQPPGKALEWLAMIWGGGRIDYNSALKSRLTISKDNSKSQVVLTMTNMDPVDTATYYCARNFGENAEAYWGQGTLVTVSS
VL: DIQMTQSPSSLSASVGDRVTITCRASQDINIYLNWYQQKPGKVVKLLIYYTSRLHSGVPSRFSGSGSGTDFTLTISSLQPEDVATYFCQQGHTLPYTFGQGTKLEIK
notes: also called h200O1 H1K1 hIgG1; h200O1 H1K1
As to B13, in experiment [3], binding was characterised by a dissociation constant (Kd) of 0.0011 pM and the kon is 682000 M⁻¹ s⁻¹.

B14: 200O1 H5K1 (antibody, V domains shown)
VH: QVQLQESGPGLVKPSETLSLTCTVSGFSLSRYIVHWYRQPPGKGLEWIGMIWGGGRIDYNSALKSRVTISKDNSKSQVSLKLSSVTAADTAVYYCARNFGENAEAYWGQGTLVTVSS
VL: B13 VL
notes: also called h200O1 H5 + h200O1 K1
For B14, in experiment [3], the Kd amounted to 0.0736 pM, the koff is 5.7e-08 s⁻¹ and the kon was determined as 776000 M⁻¹ s⁻¹.

B15: 200O1 H2K1 (antibody, V domains shown)
VH: B13 VH with N73T
VL: B13 VL
notes: also called h200O1 H2 + h200O1 K1
Consider B15, for which, in experiment [3], the affinity, expressed as Kd, was 0.625 pM; the koff came out at 2.38e-07 s⁻¹; the kon came out at 381000 M⁻¹ s⁻¹.

B16: 200O1 H6K1 (antibody, V domains shown)
VH: B14 VH with N73T, S76N
VL: B13 VL
notes: also called h200O1 H6 + h200O1 K1
In experiment [3], B16 registered a Kd of 0.61 pM, a koff of 4.55e-07 s⁻¹ and a kon of 747000 M⁻¹ s⁻¹.

B17: 6B5 H1K2 hIgG1 (antibody, V domains shown)
VH: QVQLVQSGAEVKKPGASVKVSCKASGYTFTTYWMHWVRQAPGQGLEWIGEIDPSDSYTNYNQKFKGRATLTVDKSSSTAYMELSSLRSEDTAVYYCARSFHGNFFVYWGQGTLVTVSS
VL: EIVLTQSPATLSLSPGERATLSCRASSSVSYMHWFQQKPGQAPRLLIYSTSNLATGIPARFSGSGSGTDYTLTISRLEPEDFAVYYCQQRSSYPLTFGQGTKLEIK
notes: also called h6B5 H1 + h6B5 K2
In experiment [1], B17 displayed a Kd of 2.11 nM, a koff of 0.00361 s⁻¹ and a kon of 1.71e+06 M⁻¹ s⁻¹.

B18: 6B5 H1K5 hIgG1 (antibody, V domains shown)
VH: B17 VH
VL: DIQMTQSPSSLSASVGDRVTITCRASSSVSYMHWFQQKPGKAPKLLIYSTSNLASGVPSRFSGSGSGTDYTLTISSLQPEDFATYYCQQRSSYPLTFGQGTKLEIK
notes: also called h6B5 H1 + h6B5 K5
Consider B18, for which, in experiment [1], the Kd was found to be 1.87 nM, the koff was determined as 0.00354 s⁻¹ and the kon is 1.9e+06 M⁻¹ s⁻¹.

B19: 6B5 H1K6 hIgG1 (antibody, V domains shown)
VH: B17 VH
VL: B18 VL with N52S, A54Q
notes: also called h6B5 H1 + h6B5 K6
In experiment [1], B19 displayed a Kd of 1.64 nM, a koff of 0.00401 s⁻¹ and a kon of 2.44e+06 M⁻¹ s⁻¹.

B20: 6B5 H1K3 hIgG1 (antibody, V domains shown)
VH: B17 VH
VL: B17 VL with N52S, L53R
notes: also called h6B5 H1 + h6B5 K3
With B20, in experiment [1], the Kd was determined as 1.42 nM, the koff worked out at 0.00404 s⁻¹ and the kon is 2.85e+06 M⁻¹ s⁻¹.

B21: 6B5 H1K4 hIgG1 (antibody, V domains shown)
VH: B17 VH
VL: B18 VL with M4L, L46W
notes: also called h6B5 H1 + h6B5 K4
With B21, in experiment [1], the Kd stood at 1.6 nM, the koff was 0.00229 s⁻¹ and the kon amounted to 1.43e+06 M⁻¹ s⁻¹.

B22: 6B5 H1K1 hIgG1 (antibody, V domains shown)
VH: B17 VH
VL: B17 VL with L46W, T55S
notes: also called h6B5 H1 + h6B5 K1
In experiment [1], B22 showed a Kd of 1.7 nM, a koff of 0.00255 s⁻¹ and a kon of 1.49e+06 M⁻¹ s⁻¹.

B23: 151N5 H1K1 (antibody, V domains shown)
VH: EVQLVESGGGLVKPGGSLRLSCAASGFTFSDFYMYWVRQAPGKGLEWVATISDGGRYTYYPDRLKGRFTISRDIAKNSLYLQMNSLRAEDTAVYYCARGRSTMITTTRNYFALDYWGQGTLVTVSS
VL: DIQMTQSPSSLSASVGDRVTITCKASEDIYNRLAWYQQKPGKAPKLLISGATSLETGVPSRFSGSGSGKDYTLTISSLQPEDIATYYCQQYWRTPLTFGQGTKLEIK
notes: also called h151N5 H1 + h151N5 K1
In the case of B23, in experiment [3], the Kd came out at 321 pM, the koff came to 0.0002 s⁻¹ and the kon stood at 622000 M⁻¹ s⁻¹.

B24: 151N5 H1K2 (antibody, V domains shown)
VH: B23 VH
VL: B23 VL with I83V
notes: also called h151N5 H1 + h151N5 K2
Regarding B24, in experiment [3], the equilibrium dissociation constant (Kd) turned out to be 319 pM, the koff is 0.000207 s⁻¹ and the kon amounted to 648000 M⁻¹ s⁻¹.

B25: 192E15 (antibody, V domains shown)
VH: EVKLVESGGGLVQPGGSRKLSCAASGFTFSDYGMAWVRQAPGKGPEWVAFISNLAYSIYYADTVTGRFTISRQNAKNTLYLEMSSLRSEDTAMYYCARDRGYDGHSPYYAMDYWGQGTSVTVSS
VL: QAVVTQESALTTSPGETVTLTCRSSTGAVTTSNYANWVQEKPDHLFTGLIGGTSNRPPGVPARFSGSLIGDKAALTITGAQTEDEAIYFCALWYSHHWVFGGGTKLTVL
notes: as for B9
Regarding B25, the binding result in experiment [2] is “binds”.

B26: 175P19 (antibody, V domains shown)
VH: EVMLVESGRDLVKPGGSLRLSCAASGFTFSTYAMSWIRQTPEKRLEWVATITSAGTYTYYPDSVKGRFTISRDNAKNTLYLQMRSLRSEDTAMYYCVRHELITTVVSTDYFSMDYWGQGTSVTVSS
VL: DIVLTQSPASLAVSLGQRATISCRASESVEYYGTSLMQWYQQKPGQPPKLLIYAASNVESGVPARFSGSGSGTDFSLNIHPVEEDDVAMYFCQQSRKVPLTFGAGTKLELK
notes: as for B9
B26: the binding result in experiment [2] is given as “binds”.

B27: 185O18 (antibody, V domains shown)
VH: B26 VH with R19K, S53N, A54Y
VL: B26 VL with Y31D
notes: Chimeric antibody; also called 185018
Consider B27, for which the binding result in experiment [2] was “binds”.
